These results are taken from publication PMC11890623, “Pseudomonas aeruginosa acyl-CoA dehydrogenases and structure-guided inversion of their substrate specificity” (Nature Communications, 2025).

Holding throughout (assay): Michaelis-Menten kinetics of purified enzyme (KM)
Common to all, as to assay type: biochemical, Pseudomonas aeruginosa
Holding throughout (conditions): FAD

Substrate in series [1]: CCCC(=O)SCCNC(=O)CCNC(=O)[C@H](O)C(C)(C)COP(=O)(O)OP(=O)(O)OC[C@H]1O[C@@H](n2cnc3c(N)ncnc32)[C@H](O)[C@@H]1OP(=O)(O)O
Substrate in series [2]: CCCCCC(=O)SCCNC(=O)CCNC(=O)[C@H](O)C(C)(C)COP(=O)(O)OP(=O)(O)OC[C@H]1O[C@@H](n2cnc3c(N)ncnc32)[C@H](O)[C@@H]1OP(=O)(O)O
Substrate in series [3]: CCCCCCCC(=O)SCCNC(=O)CCNC(=O)[C@H](O)C(C)(C)COP(=O)(O)OP(=O)(O)OC[C@H]1O[C@@H](n2cnc3c(N)ncnc32)[C@H](O)[C@@H]1OP(=O)(O)O

In general, Km refers to the concentration of substrate that gives half-maximal velocity.

B1: FadE2 (Pseudomonas aeruginosa PAO1) (protein)
chain: MADYKAPLRDMRFVLNEVFEVSRLWAQLPALAEVVDAETAAAILEEAGKVTAGTIAPLNRPGDEEGCQWNAGAVSTPAGFPEAYRTYAEGGWVGVGGDPAYGGMGMPKVISAQVEELVNSANLSFGLYPMLTAGACLALNAHASDELKDKYLPNMYAGIWAGSMCLTEPHAGTDLGIIRTRAEPQADGSYKISGTKIFITGGEHDLTENIIHLVLAKLPDAPAGPKGISLFLVPKVLVNADGSLGEKNSLGCGSIEHKMGIKASATCVMNFDGATGWLVGEVNKGLAAMFTMMNYERLGVGIQGLATGERSYQSAIEYARERIQSRAPTGPVAKDKAADPIIVHPDVRRMLLTMKALNEGGRAFSSYVAMQLDTAKYSEDAVTRKRAEELVALLTPVAKAFLTDMGLETTIHGQQIFGGHGFIREWGQEQLVRDCRITQIYEGTNGIQALDLVGRKVIGSGGAFSRHFTDEIKAFVASADEALGEFSKPLAAAVENLEELTAWLLDRAKGNPNEIGAASVEYLHVFGYTAYAYMWALMARTALAKQGEDDFYASKLGTARFYFARLLPRIHSLSASVRAGSESLYLLDAEQF
notes: full-length ORF, His6 tag removed by TEV
B1: the Km was found to be 10.35 ± 1.06 µM in series [1], 14.6 ± 1.43 µM in series [2] and 21.59 ± 1.23 µM in series [3].
